Reference: US20050233963A1

Target: hsc70 (constitutively expressed form of hsp70) (UniProt P11142)
Test: cell-based or functional assay

Sequence of hsc70 (constitutively expressed form of hsp70) (P11142 whole entry): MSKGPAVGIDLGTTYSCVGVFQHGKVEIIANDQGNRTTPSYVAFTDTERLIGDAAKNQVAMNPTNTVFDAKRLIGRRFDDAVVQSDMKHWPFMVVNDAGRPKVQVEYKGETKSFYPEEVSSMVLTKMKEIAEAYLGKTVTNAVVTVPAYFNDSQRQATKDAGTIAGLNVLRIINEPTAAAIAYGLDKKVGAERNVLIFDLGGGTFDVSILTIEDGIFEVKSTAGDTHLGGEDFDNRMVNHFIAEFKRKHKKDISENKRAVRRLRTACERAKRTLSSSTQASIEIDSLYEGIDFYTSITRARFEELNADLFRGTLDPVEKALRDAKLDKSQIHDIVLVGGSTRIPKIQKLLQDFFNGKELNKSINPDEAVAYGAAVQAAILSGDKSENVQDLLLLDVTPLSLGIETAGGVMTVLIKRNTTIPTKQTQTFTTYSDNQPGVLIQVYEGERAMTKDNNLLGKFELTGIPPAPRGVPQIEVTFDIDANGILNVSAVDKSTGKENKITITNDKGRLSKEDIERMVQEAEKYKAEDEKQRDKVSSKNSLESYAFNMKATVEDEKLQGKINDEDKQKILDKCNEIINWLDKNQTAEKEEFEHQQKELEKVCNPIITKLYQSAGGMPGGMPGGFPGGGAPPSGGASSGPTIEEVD

decrease in hs70-dependent refolding of luciferase: 30%
Substance: His-UBP (histidine tagged-UBP) (from UniProt O43765 1-313)
